These results are taken from US20190212347A1, “BIO-ANALYTICAL METHOD FOR INSULIN ANALOGUES” (BIOCON LIMITED, priority 2016, published 2019).

A short description of data set [1]: Stability of stock solution in acetic acid (2%) in methanol:water. As to conditions: acetic acid (2%) in methanol:water (30:70 v/v). In kind it is physicochemical. On the procedure: Two separate stock solutions were prepared by dissolving 2 mg of IN-105 and dissolving in 1 mL of 2% acetic acid containing methanol:water in the ratio of 30:70 v/v. Thus, the stock solution of 2000 μg/mL was prepared.
One was named “calibration stock” and other was named “quality control stock”. The stock solution was stored at −20° C. for 40 days.
In one embodiment nitrogen isotope labelled insulin having purity 96.3% and 96.1% respectively, was used as analytical standard and internal standard for further analysis. Glargine (3.64 mg/mL) of 100% purity was used as co-administered standard in the analytical procedure. The stability studies to understand storage stability and solution stability were carried out.
In addition to the experiments described above, selectivity of the method in plasma (K2EDTA/K3EDTA) from different sources, effect of lipaemia and haemolysis, selectivity and modification of ionisation of insulin in the presence of Glargine and stability of solutions of insulin or insulin analogues investigated.

The nature of data set [2]: Extract stability at 10° C. As to conditions: extracts stored at 10° C. for approximately 85 hours. In kind it is physicochemical. On the procedure:
Validation consisted of intra run precision and bias, inter-run precision and bias, dilution integrity, matrix related modification of ionisation, auto-injector carry over, stability in whole blood at room temperature and on ice, freeze thaw stability of plasma over 5 cycles, 24 h room temperature stability of plasma, frozen stability in plasma at −20 and −80° C. for 73 days, recovery and extract stability at 10° C.

Data set [3] is described as follows: Stability in human plasma (room temperature, freeze/thaw, frozen storage). The format is in vitro ADME. On the procedure: Assessment of sample stability on storage (storage stability) was carried according to table (8), Acceptance criterion was defined as a recovered concentration within ±15% of the nominal spiked concentration. All standards were used within its stability period.
Validation consisted of intra run precision and bias, inter-run precision and bias, dilution integrity, matrix related modification of ionisation, auto-injector carry over, stability in whole blood at room temperature and on ice, freeze thaw stability of plasma over 5 cycles, 24 h room temperature stability of plasma, […], recovery and extract stability at 10° C.

Data set [4] is described as follows: Pharmacokinetics study: IN-105 plasma levels by LC/MS/MS in euglycemic clamp study in patients with Type 1 diabetes. In kind it is in vivo, human. As to the method:
The method was considered validated successfully since it passed all the pre-determined criteria in the validation protocol. The validated method was subsequently used for measurement of IN-105 levels in a euglycemic clamp study carried out in patients with Type 1 diabetes. The method for the determination of IN-105 in human plasma has been validated successfully over the concentration range 0.200 ng/ml to 50.0 ng/mL.
Plasma concentration data for each patient and treatment was analysed by a non-compartmental method. The area under plasma level curve for AUC0-t was calculated by the trapezoidal rule. The primary pharmacokinetic parameters (mean±SD) were Cmax, AUClast, Tmax and PD parameters were Tmin, Cmin, AUClast. Ratios and 90% CIs of geometric means were calculated for PK and PD parameters from mixed effects model with fixed effects for sequence, period and treatment, and patients within sequence as a random effect for log transformed Cmax and AUC.
The average plasma concentration time profile of IN-105 obtained after administration of IN-105 tablets in volunteers is shown in FIGS. 13-14.

The mark [5] stands for this setting: room temperature, up to 24 hours.

Regarding “[^15N] IN-105: IN-105 labelled with stable isotope 15N by fermentation in labelled medium; used as internal standard”, in data set [1] (setting [5]), the “solution stability at room temperature” value was “stable”. Also, the “solution stability at −20° C.” value in data set [1] (−20° C., up to 40 days) was “stable”.
“IN-105: rapid acting insulin analogue for oral delivery; human insulin sequence conjugated with short chain alkyl-polyethylene glycol at ε-amino group of lysine B29”: in data set [2], the extract stability result is recorded as “stable”. Further, the “frozen stability in plasma at −20° C.” value in data set [3] (244 days storage at −20° C.) was “stable”. Also, the “frozen stability in plasma at −80° C.” value in data set [3] (244 days storage at −80° C.) was “stable”. The “freeze/thaw stability in plasma” value in data set [3] (after five freeze/thaw cycles) was “stable”. For the same substance, the “stability in plasma stored at room temperature” value in data set [3] (setting [5]) is listed as “stable”. Moreover, in data set [4] (30 mg/kg dose, FIG. 15), the “mean plasma concentration as a function of time after dosing” value was “well-defined peak concentration and subsequent clearance is evident”. The “AUClast (AUCt) as function of dose: intercept” value in data set [4] (AUClast in ng · h/ml, linear regression against dose) is −243.525 area units. Besides, in data set [4] (AUClast in ng · h/ml, linear regression against dose, oral tablets, T1D patients), the “AUClast (AUCt) as function of dose: slope” value turned out to be 26.427 area units/mg. The “Cmax as function of dose: intercept” value in data set [4] (Cmax in ng/ml, linear regression against dose) is recorded as −2.421 concentration units. Also, in data set [4] (Cmax in ng/ml, linear regression against dose, oral tablets, T1D patients), the “Cmax as function of dose: slope” value was determined as 0.431 concentration units/mg. Further, the “correlation of maximal plasma concentration and area under the PK curve with dose” value in data set [4] (p<0.05) was “linearly correlated significantly”.
